B1: Azoarcus group I ribozyme (parent)
chain: GUGCCUUGCGCCGGGAAACCACGCAAGGGAUGGUGUCAAAUUCGGCGAAACCUAAGCGCCCGCCCGGGCGUAUGGCAACGCCGAGCCAAGCUUCGGCGCCUGCGCCGAUGAAGGUGUAGAGACUAGACGGCACCCACCUAAGGCAAACGCUAUGGUGAAGGCAUAGUCCAGGGAGUGGCGAAAGUCACACAAACCGG

Variants of B1 are the subject of this series. Kind of series: reverse-splicing fitness (ratio to wild type); higher = more active; in vitro selection; Mg2+ level not given. A digest of the protocol: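 An in vitro group I ribozyme library with randomized positions was T7-transcribed and gel-purified. In triplicate, 10 pmol RNA in EPPS pH 7.5 was reacted with 50 pmoles of a 30-nt RNA substrate for 1 h at 37 °C across several added MgCl2 levels (1–48 mM), then stopped with EDTA. Products were reverse transcribed from a substrate-complementary primer, PCR-amplified and sequenced (HiSeq 4000). Fitness is a variant's read proportion after selection over that before, normalised to wild type.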
Regarding C82A A111C A120U A145C C169G U176C, the reverse-splicing fitness stood at 0.00316.

C82G A111C A120U C150U C169U: the reverse-splicing fitness came out at 0.00568.

Turning to C82A A111U A120G A145G C150A C169U, the reverse-splicing fitness stood at 0.00929.

With C82A A111U A120G A145G C150A C169G, the reverse-splicing fitness amounted to 0.00912.

Consider C82G A111C A145U C150A C169U U176C, for which the reverse-splicing fitness worked out at 0.014.

C82G A111U A120C A145C C150U U176C: the reverse-splicing fitness was 0.0178.

A145U C169U: the reverse-splicing fitness was 0.407.

As for C82G A111C A120U A145G C150G U176G, the reverse-splicing fitness amounted to 0.00447.

Consider C82G A145U C150U C169A U176G, for which the reverse-splicing fitness was found to be 0.00466.

Take C82G A111C A145G C150U: the reverse-splicing fitness stood at 0.205.

Take C82G A120G A145G C150U C169A: the reverse-splicing fitness amounted to 0.0266.

For C82A A111G A120G A145G C150U C169U U176G, the reverse-splicing fitness was found to be 0.00632.

For the variant C82G A120G A145G C150A C169A, the reverse-splicing fitness was found to be 0.0126.

As for C82U A111G A120C A145C C150G C169A U176A, the reverse-splicing fitness came out at 0.00643.

Consider C82U A111G A120G A145G C150A C169A U176G, for which the reverse-splicing fitness came out at 0.00545.

On to C82A A111C A145U C150G C169G U176A, for which the reverse-splicing fitness is 0.00679.

On to C82A A120U A145U C150A C169U U176G, for which the reverse-splicing fitness stood at 0.00196.

Consider C82A A111U A145C C150A U176G, for which the reverse-splicing fitness is 0.00842.

As to A111C A120U A145G C150U C169A U176C, the reverse-splicing fitness was found to be 0.00404.

Regarding A145C C169U U176G, the reverse-splicing fitness amounted to 0.0117.

For the variant A111G A145G U176A, the reverse-splicing fitness was determined as 0.751.

As to A111C A120C A145C C150A C169U U176G, the reverse-splicing fitness is 0.00564.

As for A111G A120G A145C C150U U176A, the reverse-splicing fitness is 0.0317.

As for A111G A120G A145C C150U U176G, the reverse-splicing fitness came to 0.00705.

With C82G A111G A120U A145G C169U U176G, the reverse-splicing fitness came out at 0.00164.

Turning to C82G A111U A120C A145C C150A C169G, the reverse-splicing fitness turned out to be 0.00886.

For C82A A111U A120U A145C C150A C169U U176A, the reverse-splicing fitness came to 0.00277.

As for C82A A111U A120U A145C C150A C169U U176G, the reverse-splicing fitness was 0.00186.

Consider C82A A111C A120G A145G C169G U176G, for which the reverse-splicing fitness was 0.00491.

For A111C A120G A145U C150G C169A U176A, the reverse-splicing fitness worked out at 0.0089.

As for A111G C150A U176C, the reverse-splicing fitness is 0.264.

Consider A111C A120C A145C C150A C169G, for which the reverse-splicing fitness stood at 0.0073.

Turning to A111U C150A C169G, the reverse-splicing fitness turned out to be 0.0124.

With C82U A120G A145G C169A U176G, the reverse-splicing fitness stood at 0.00333.

Consider A111C A145U C150A C169U, for which the reverse-splicing fitness is 0.0179.

Turning to C82A A120U A145U C150G C169A U176A, the reverse-splicing fitness came to 0.00324.

As for C82A A145G C150A C169G U176A, the reverse-splicing fitness worked out at 0.0164.

As for C82A A111G A145G U176G, the reverse-splicing fitness is 0.0444.

For C82U A145G C169G U176A, the reverse-splicing fitness is 0.0184.

In the case of A111G A120G A145U C169G U176G, the reverse-splicing fitness was determined as 0.00712.

Take A120U A145U C150U C169U U176G: the reverse-splicing fitness was found to be 0.00903.

A120G C150U C169U U176A: the reverse-splicing fitness was 0.136.

As for A111C A120U A145G, the reverse-splicing fitness was found to be 0.675.

On to C82U A111U A120C, for which the reverse-splicing fitness worked out at 0.0288.

With C82U A111G A120G A145G C150U C169A U176C, the reverse-splicing fitness amounted to 0.0148.

In the case of C82A A111U A120U A145G C150A C169A U176A, the reverse-splicing fitness came to 0.0108.

Turning to C82U A111C A120G A145C C150U C169A U176C, the reverse-splicing fitness turned out to be 0.00554.

Consider C82A A145U C150A, for which the reverse-splicing fitness was determined as 0.0549.

With C82A A145U C150U, the reverse-splicing fitness amounted to 0.449.

In the case of C82A A111U A120U A145U C150G C169G, the reverse-splicing fitness worked out at 0.00379.

Take C82G A111C A145G C150A C169A: the reverse-splicing fitness came out at 0.00903.

With A111C A145U C150U U176C, the reverse-splicing fitness was 0.36.

With A111C A145G C150G C169G U176G, the reverse-splicing fitness is 0.00555.

Consider C82A A111U A145U C150U C169U U176G, for which the reverse-splicing fitness worked out at 0.00717.

For A145C C150U, the reverse-splicing fitness amounted to 0.695.

Regarding C82U A111C A145G C150G C169G U176A, the reverse-splicing fitness was 0.00912.

Regarding C82G A111U A145U C150A U176C, the reverse-splicing fitness is 0.0315.

In the case of C82A A111C A120U A145U C150U C169G U176G, the reverse-splicing fitness worked out at 0.00247.

For C82A A111C A120U A145U C150U C169G U176A, the reverse-splicing fitness was found to be 0.00315.

On to C82A A120C C169U, for which the reverse-splicing fitness turned out to be 0.0186.

Regarding C82G A111C A145U C150G U176G, the reverse-splicing fitness was 0.0052.

In the case of C82G A111G A120C A145U U176A, the reverse-splicing fitness stood at 0.0294.

For the variant A111U A120G A145G C150A C169A U176A, the reverse-splicing fitness worked out at 0.0188.

For C82U A111U A120U A145C C169U U176C, the reverse-splicing fitness is 0.0022.

Regarding C82A A111U A145G C150G U176A, the reverse-splicing fitness amounted to 0.00963.

As to C82U A120G A145U C150U C169A U176C, the reverse-splicing fitness stood at 0.0085.

As to C82U A111G A120U A145U C150G C169G, the reverse-splicing fitness was determined as 0.00266.

As for A111C A120C C150A U176A, the reverse-splicing fitness came out at 0.0343.

C82U A111G C150A C169A U176G: the reverse-splicing fitness was determined as 0.00533.

As to A111G A120C A145G C150G C169A U176A, the reverse-splicing fitness stood at 0.00955.

On to C82G A111U A120C C150U U176G, for which the reverse-splicing fitness came out at 0.00892.

With C82U A111C A120C A145G C150A C169U U176C, the reverse-splicing fitness amounted to 0.0172.

A111U A120U A145U U176A: the reverse-splicing fitness is 0.241.

For C82G A111C A145G C150G C169G U176G, the reverse-splicing fitness was determined as 0.00603.

As to C82G A111C A120U A145U C150G C169A U176G, the reverse-splicing fitness was found to be 0.00276.

C82A A120C A145C U176G: the reverse-splicing fitness came to 0.00935.

As to C82G A111U A120C A145C C150G C169U U176A, the reverse-splicing fitness worked out at 0.00676.

With C82G A111C A120G A145G C169U U176C, the reverse-splicing fitness was found to be 0.0145.

For the variant C82A A111C A120C C150A C169U U176C, the reverse-splicing fitness was determined as 0.015.

On to C82U A111C A120G A145U C150A U176G, for which the reverse-splicing fitness stood at 0.00424.

For C82U A120U C150U C169A U176C, the reverse-splicing fitness worked out at 0.00192.

In the case of C82U A111C A120G A145C C150A C169A U176A, the reverse-splicing fitness turned out to be 0.011.

Regarding C82G A111U A120G A145G C169U, the reverse-splicing fitness came to 0.00985.

As to C82G A111G A120U A145C, the reverse-splicing fitness turned out to be 0.0668.

The values above are taken from the RNAGym collection of RNA variant scans (doi:10.1093/molbev/msab373).
